Data taken from US20260200999A1, “SYNTHETIC TRANSCRIPTION FACTORS” (ETH ZURICH, priority 2022, published 2026).

Tested on: Response Element-driven mCerulean reporter (MTERF1 binding sites, SEQ ID NO: 42)
Test: mCerulean reporter co-transfection with HumTAP constructs in HEK293 cells (flow cytometry)
Format: cell-based, human
Settings: HEK293; for reporter gene (mCerulean) expression / mCerulean expression, fold lower than the benchmark RelA430-551 TAD / reporter (mCerulean) expression: TAD fused to MTERF158-399; for reporter gene (mCerulean) expression: 5xRE reporter without spacer (SEQ ID NO: 48), compared with RelA430-551 (Example 1, FIG. 4A); for mCerulean expression, fold lower than the benchmark RelA430-551 TAD: FIG. 9B; for reporter (mCerulean) expression: pEF1a-driven, Example 4, FIG. 9B, C; for output expression / transcriptional activation: N-terminally truncated MTERF1 fused to RelA430-551, reporter SEQ ID NO: 48 (Example 1, FIG. 5B); for reporter expression, times less than with MTERF158-399: truncated MTERF1 DBD; for fluorescence relative to only one copy of the respective TAD: Example 1, FIG. 4A
Description: To construct a promoter with Response Elements/MTERF1 binding sites driving the gene of interest, the inventors placed MTERF1 binding sites (SEQ ID NO: 42) upstream a minimal TATA box (SEQ ID NO: 103). An mCerulean fluorescent reporter representing the gene of interest (Gol) was placed downstream of the TATA box. Each of these is referred to as a reporter construct. Five different reporter constructs were made comprising respectively 3, 5, 7, 9, and 11 MTERF1 binding sites 6 base pairs apart upstream of the TATA box (FIG. 1A; SEQ ID NO: 41, 44, 45, 46 and 47, respectively). They were co-transfected with the MTF construct into Hela cells. […] Using flow cytometry, relative mCerulean levels were measured and calculated by normalization to the transfection control in Hela cells (FIG. 1C). […] Next, reporter plasmids with varying spacer lengths (0, 6 bp and 10 bp; SEQ ID NO: 48, 44 and 49, respectively) (FIG. 1F) between a fixed number of REs (i.e. 5 REs/MTERF1 binding sites) were transfected with the MTF construct. […] This was confirmed using flow cytometry (FIG. 1H). […]
With the goal to engineer stronger and possibly shorter HumTAPs, the inventors fused the MTERF158-399 peptide (SEQ ID NO: 1) to a variety of transactivation domains and transfected HEK293 cells with those constructs and the reporter construct comprising 5×RE/MTERF1 binding sites without a spacer between them (SEQ ID NO: 48).
First, MTERF158-399 (SEQ ID NO: 1) was fused with different subsequences of RelA. RelA361-551 (SEQ ID NO: 27) corresponds to the sequence used in the construction of the bacterial-derived synthetic TF PIT2 [19], while RelA342-551 (SEQ ID NO: 29) contains all annotated transactivation domains according to domain annotation under Uniprot Q04206 (https://www.uniprot.org/uniprotkb/Q04206/entry). […] We also fused MTERF158-399 (SEQ ID NO: 1) to a set of transactivation domains previously found to be strong activators with a small genetic footprint (FIG. 4B).
To further decrease the DNA footprint of a HumTAP, the inventors investigated to what degree the DNA binding domain may be reduced. To this end, the inventors created 3 versions of MTERF1 subsequences fused to RelA430-551 (SEQ ID NO: 3). MTERF173-399 (SEQ ID NO: 7), MTERF1104-399 (SEQ ID NO: 9), and MTERF1135-399 (SEQ ID NO: 11) are subunits of MTERF1 without its mitochondrial transfer peptide (MTERF11-57; SEQ ID NO: 37) that either lack only the first […] N-terminal amino acids (MTERF58-72; SEQ ID NO: 39) or additionally, also lack the first (MTERF173-98; SEQ ID NO: 104) or both the first and second (MTERF1104-134; SEQ ID NO: 106) mterf motifs (FIG. 5A). The removal of N-terminal domains reduces the genetic footprint of a HumTAP (FIG. 5B). These constructs were co-transfected into HEK293 cells with the reporter construct containing 5×RE without a spacer in its promoter (SEQ ID NO: 48).
In addition to RelA430-551 (termed “v1”), the inventors tested three alternative subsequences: v2) RelA342-551 (SEQ ID NO: 29), which contains all transactivation domains as annotated on UniProt Q04206; v3) RelA361-551 (SEQ ID NO: 27), which is identical to the peptide used in the construction of PIT2 [2]; and v4) RelA521-551 (SEQ ID NO: 31), which constitutes only the transactivation domain 1 (TA1). The protein domains WW (SEQ ID NO: 21), KRAB of ZNF473 (SEQ ID NO: 23), Nuc-rec-co-Act (SEQ ID NO: 25), LMSTEN (SEQ ID NO: 19), and FoxoTAD (SEQ ID NO: 17) were recently identified as strong transactivators. To assess their functionality in the HumTAP context, the inventors created fusion proteins between each of them and MTERF158-399 (SEQ ID NO: 1) (FIG. 9A).
Upon co-transfection of HEK293 cells with plasmids encoding pEF1a-driven expression of the fusion HumTAPs, a Response Element-driven mCerulean reporter protein, and a mCherry transfection control, all peptides derived from RelA except TA1 mediated high levels of reporter gene expression. […]

[1] = two copies of TAD fused to MTERF158-399

FoxoTAD: MTERF158-399 fused to the FOXO-TAD domain of FOXO3 (HEKFPSDLDLDMFNGSLECDMESIIRSELMDADGLDFNFDS; listed as Homo sapiens)
reporter gene (mCerulean) expression: mediated significant mCerulean expression | mCerulean expression, fold lower than the benchmark RelA430-551 TAD: 8.4 fold

NucRecCoAct: MTERF158-399 fused to the Nuc_rec_co-act domain of NCOA3 (EGQSDERALLDQLHTLLSNTDATGLEEIDRALGIPELVNQGQALEPKQ; listed as Homo sapiens)
reporter gene (mCerulean) expression: did not lead to high reporter expression | reporter (mCerulean) expression: little to no reporter expression

RelA342-551: MTERF158-399 fused to RelA342-551, containing all annotated transactivation domains
reporter gene (mCerulean) expression: stronger reporter gene expression

TA1: MTERF158-399 fused to the TA1 domain of RelA (PGLPNGLLSGDEDFSSIADMDFSALLSQISS; listed as Homo sapiens)
reporter gene (mCerulean) expression: did not activate reporter gene expression significantly | reporter (mCerulean) expression: little to no reporter expression

VP64: MTERF158-399 fused to VP64, viral-derived transactivation domain repeats of HHV11 linked by a GS linker (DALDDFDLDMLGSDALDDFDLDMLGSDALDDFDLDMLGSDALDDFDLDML)
reporter gene (mCerulean) expression: lower reporter expression than the benchmark

WW: MTERF158-399 fused to the WW domain of WWC1
reporter gene (mCerulean) expression: did not lead to high reporter expression | reporter (mCerulean) expression: little to no reporter expression

ZNF473 KRAB: MTERF158-399 fused to the KRAB domain of ZNF473 (FVTLKDVGMDFTLGDWEQLGLEQGDTFWDTALDNCQDLFLLDPP; listed as Homo sapiens)
reporter gene (mCerulean) expression: did not lead to high reporter expression | reporter (mCerulean) expression: little to no reporter expression

B1: MTERF173-399: MTERF1 lacking N-term, fused to RelA430-551 (protein, listed as Homo sapiens)
chain: EDLLKNLLTMGVDIDMARKRQPGVFHRMITNEQDLKMFLLSKGASKEVIASIISRYPRAITRTPENLSKRWDLWRKIVTSDLEIVNILERSPESFFRSNNNLNLENNIKFLYSVGLTRKCLCRLLTNAPRTFSNSLDLNKQMVEFLQAAGLSLGHNDPADFVRKIIFKNPFILIQSTKRVKANIEFLRSTFNLNSEELLVLICGPGAEILDLSNDYARRSYANIKEKLFSLGCTEEEVQKFVLSYPDVIFLAEKKFNDKIDCLMEENISISQIIENPRVLDSSISTLKSRIKELVNAGCNLSTLNITLLSWSKKRYEAKLKKLSRFA
output expression / transcriptional activation: reduced but not abolished | reporter expression, times less than with MTERF158-399 (FIG. 9E): ~ 1.5 times

B2: LMSTEN: MTERF158-399 fused to the LMSTEN domain of MYB (protein, listed as Homo sapiens)
chain: EAQNVSSHVPYPVALHVNIVNVPQPAAAAIQRHYNDEDPEKEKRIKELELLLMSTENELKGQQVLPTQNHTCSYPGWHST
reporter gene (mCerulean) expression: mediated significant mCerulean expression | mCerulean expression, fold lower than the benchmark RelA430-551 TAD: 11.3 fold

B3: SEQ ID NO: 35: MTERF158-399 fused to two copies of RelA521-551 (protein)
chain: PGLPNGLLSGDEDFSSIADMDFSALLSQISSPGLPNGLLSGDEDFSSIADMDFSALLSQISS
reporter (mCerulean) expression: led to reporter expression | fluorescence relative to only one copy of the respective TAD [1]: 201 times

B4: MTERF1135-399: MTERF1 lacking N-term and first and second Mterf motif, fused to RelA430-551 (protein, listed as Homo sapiens)
chain: TPENLSKRWDLWRKIVTSDLEIVNILERSPESFFRSNNNLNLENNIKFLYSVGLTRKCLCRLLTNAPRTFSNSLDLNKQMVEFLQAAGLSLGHNDPADFVRKIIFKNPFILIQSTKRVKANIEFLRSTFNLNSEELLVLICGPGAEILDLSNDYARRSYANIKEKLFSLGCTEEEVQKFVLSYPDVIFLAEKKFNDKIDCLMEENISISQIIENPRVLDSSISTLKSRIKELVNAGCNLSTLNITLLSWSKKRYEAKLKKLSRFA
functionality of synTF with truncated DBD (FIG. 9E): non-functional | output expression / transcriptional activation: complete loss of transcriptional activation

B5: MTERF1104-399: MTERF1 lacking N-term and first Mterf motif, fused to RelA430-551 (protein, listed as Homo sapiens)
chain: EQDLKMFLLSKGASKEVIASIISRYPRAITRTPENLSKRWDLWRKIVTSDLEIVNILERSPESFFRSNNNLNLENNIKFLYSVGLTRKCLCRLLTNAPRTFSNSLDLNKQMVEFLQAAGLSLGHNDPADFVRKIIFKNPFILIQSTKRVKANIEFLRSTFNLNSEELLVLICGPGAEILDLSNDYARRSYANIKEKLFSLGCTEEEVQKFVLSYPDVIFLAEKKFNDKIDCLMEENISISQIIENPRVLDSSISTLKSRIKELVNAGCNLSTLNITLLSWSKKRYEAKLKKLSRFA
output expression / transcriptional activation: reduced but not abolished | reporter expression, times less than with MTERF158-399 (FIG. 9E): ~ 1.5 times

B6: SEQ ID NO: 33: MTERF158-399 fused to two copies of FOXO3604-644 (protein)
chain: HEKFPSDLDLDMFNGSLECDMESIIRSELMDADGLDFNFDSHEKFPSDLDLDMFNGSLECDMESIIRSELMDADGLDFNFDS
reporter (mCerulean) expression: enhanced the transcriptional activity of the synthetic TF more than two copies of TA1 or two copies of LMSTEN | mCerulean expression, fold more than the benchmark RelA430-551 TAD (fused to MTERF158-399, FIG. 9C): ~ 2 fold | fluorescence relative to only one copy of the respective TAD [1]: 12 times | mCerulean/reporter expression, fold more than one copy of the TAD (two copies of TAD fused to MTERF158-399, Example 4, FIG. 9C): 20 fold

B7: RelA361-551: MTERF158-399 fused to RelA361-551 transactivation domain (PIT2 version) (protein, listed as Homo sapiens)
chain: DEFPTMVFPSGQISQASALAPAPPQVLPQAPAPAPAPAMVSALAQAPAPVPVLAPGPPQAVAPPAPKPTQAGEGTLSEALLQLQFDDEDLGALLGNSTDPAVFTDLASVDNSEFQQLLNQGIPVAPHTTEPMLMEYPEAITRLVTGAQRPPDPAPAPLGAPGLPNGLLSGDEDFSSIADMDFSALLSQISS
reporter gene (mCerulean) expression: stronger reporter gene expression
